T1: human fXIIa (Homo sapiens, UniProt P00748)
T1 construct: Human coagulation factors IIa (thrombin), Xa, XIa, XIIa, EGR-fXa; purchased Haematologic Technologies Inc (United States)
T1 sequence (P00748 373-615 limits assumed): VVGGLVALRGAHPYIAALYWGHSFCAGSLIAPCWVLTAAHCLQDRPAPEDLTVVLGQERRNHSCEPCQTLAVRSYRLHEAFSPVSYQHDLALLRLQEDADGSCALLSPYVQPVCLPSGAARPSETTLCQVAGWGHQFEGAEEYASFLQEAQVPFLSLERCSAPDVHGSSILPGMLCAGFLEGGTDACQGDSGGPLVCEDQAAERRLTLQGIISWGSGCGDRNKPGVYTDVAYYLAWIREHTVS
T1 sequence (P00748 20-372 limits assumed): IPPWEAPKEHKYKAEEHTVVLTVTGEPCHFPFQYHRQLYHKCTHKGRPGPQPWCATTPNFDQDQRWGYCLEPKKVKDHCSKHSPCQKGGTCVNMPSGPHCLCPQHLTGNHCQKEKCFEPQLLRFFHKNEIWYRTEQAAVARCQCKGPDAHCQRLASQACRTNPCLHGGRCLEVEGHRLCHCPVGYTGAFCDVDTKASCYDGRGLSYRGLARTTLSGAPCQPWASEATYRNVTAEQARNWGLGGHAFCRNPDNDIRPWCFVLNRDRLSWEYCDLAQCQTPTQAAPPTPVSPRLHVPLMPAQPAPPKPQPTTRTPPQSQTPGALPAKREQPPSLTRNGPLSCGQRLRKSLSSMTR

B1: NAPTin-7 (protein)
chain: NPSCGENERHDECSRKECDPKCKYDGTEEKDDEKPVVCLTRVCYGDCICRDGFLRNKNGACVKAEDC
modifications: Sequence derived from Ancylostoma caninum or Synthetic
B2: NAPTin-5 (protein)
chain: NPSCGENERHDECSRKECDPKCKYDGTEEKDDEKPVVCLTRVCYGDCICRDGFLRNKNGACVKAEDCEL
modifications: Sequence derived from Ancylostoma caninum or Synthetic
B3: NAPTin-3 (protein)
chain: NPSCGENERHDECSRKECDPKCKYDGTEEKDDEKPVVCLTRVCYGDCICRDGFLRNKNGACVKAEDCELDNM
modifications: Sequence derived from Ancylostoma caninum or Synthetic

Assays:
SD rats = test: Rat arterio-venous shunt thrombus formation model; type: in vivo; conditions: 100 U·kg^−1 i.v.
Protocol: 50 SPF grade male SD rats (provided by the laboratory animal center of Guangdong Medical College, 300-350 g body weight) were randomly divided into saline control group, positive control group (100 U·kg^−1 heparin sodium, Shanghai No. 1 Biochemical & Pharmaceutical Co. Ltd), and rNAPT-1 low dose (100 μg·kg^−1), middle dose (1 mg·kg^−1), high dose group (5 mg·kg^−1), 10 rats each group, respectively. These rats were anaesthetized with 10% chloral hydrate (250 mg/kg) by intraperitoneal injection. The right common carotid artery and left external jugular vein was exposed and dissected bluntly from the surrounding tissue after a surgical incision. One end of a polyethylene pipe (1.5 mm of diameter, 22 cm of length) with a 5 cm length of No. 4 operation suture in it and filled with 50 U/mL heparin solution was inserted into the right common carotid artery, and the other end was inserted into the left external […] vein. 5 min after tail intravenous injection of drugs, the artery clamp was opened, and blood flow from the right common carotid artery to the left external jugular vein through the polyethylene pipe. After 15 min of blood flow, the suture line was quickly removed and weighed. The net weight of thrombus is total weight minus suture weight; inhibition rate=(wet weight of thrombus of saline control group−wet weight of thrombus of administration group)/wet weight of thrombus of saline control group×100%.

BALb/c mice = test: Mouse tail bleeding time; type: in vivo; conditions: tail transected after 10 min
Protocol: After 10 min, the distal tip 1.5 mm of the mouse tail was transected and the blood oozed was soaked with filter paper very 30 seconds until the bleeding stops. The bleeding time was defined as the time elapsed from the tail transection to the stoppage of bleeding.

human fIIa (thrombin) = target: T2, human fIIa (thrombin) (Homo sapiens, UniProt P00734); test: Chromogenic assay, fIIa (thrombin); type: biochemical
T2 construct: Human coagulation factors IIa (thrombin), Xa, XIa, XIIa, EGR-fXa; purchased Haematologic Technologies Inc (United States)
Text: (§1) The recombinant anticoagulant polypeptides in the present invention were expressed in E. coli and purified in our laboratory, of which the activities against coagulation factors were investigated by chromogenic assays. Human coagulation factors IIa (thrombin), Xa, XIa, XIIa, EGR-fXa were products of Haematologic Technologies Inc (United States). Recombinant fVIIa was products of Novo-Nordisk (Denmark). Recombinant soluble tissue factor (sTF) was purchased from Protgen (Beijing, China). The following chromogenic substrates were used for these coagulation factor assays: S2765 for human fXa, S2288 for human fVIIa and fIIa, 52366 for human fXIa and fXIIa, respectively.
(§2) The chromogenic assays were carried out in a total reaction volume of 100 μl in individual wells of a 96-well microtiter plate. 50 μl fIIa, fXa, fXIa, or fXIIa (final concentration: 1 nM) was incubated with 10 μl recombinant anticoagulant polypeptide at various concentrations (or PBS control group) Assays for the detection activity of fVIIa: 50 μl fVIIa+TF (1 μM) and EGR-fXa (final concentration 500 nM) was incubated for 15 mins at 25° C., respectively. After the addition of 40 μl of prewarmed chromogenic substrate to a final concentration of 400 μM, the changes of absorbance at 405 nm were monitored by using an E1x808 kinetic microtiter reader. The data were used to calculate the velocities of response.

human fXIa = target: T3, human fXIa (Homo sapiens, UniProt P03951); test: Chromogenic assay, fXIa; type: biochemical; conditions: for inhibition of the activity of fXIa: 100 nM; for inhibition of the activity of fXIa (in words): 200 nM
T3 construct: Human coagulation factors IIa (thrombin), Xa, XIa, XIIa, EGR-fXa; purchased Haematologic Technologies Inc (United States)
Text: as §1, §2

normal human plasma [1] = test: aPTT assay in normal human plasma; type: biochemical; conditions: for prolongation of aPTT (in words): 100 nM and 500 nM; for aPTT: normal human plasma; for multiples of prolonging aPTT: ratio of mean aPTT to blank control
Protocol: (§3) The recombinant anticoagulant polypeptides were expressed in Escherichia coli and purified in our laboratory. Anticoagulant activity was determined by measuring the aPTT and PT.
For the aPTT assay, 10 μl recombinant protein at various concentrations was mixed with 50 μl fresh normal human plasma, 20 μl aPTT reagent (MDC Hemostasis, Germany) and incubated for 15 mins at 37° C. 20 μl 0.05 mol/L prewarmed CaCl2 was then added to initiate the clotting reaction. The clotting time was measured with the absorbance at 630 nm by using an E1x808 kinetic microtiter reader (BioTek, United States). Each concentration was repeated 3 times. The ratio of the mean aPTT value of each concentration to blank control group is multiples of prolonging the aPTT.

fVIIa/TF = target: T4, fVIIa/TF (Homo sapiens, UniProt P08709); test: Chromogenic assay, fVIIa/TF; type: biochemical
T4 construct: Recombinant fVIIa was products of Novo-Nordisk (Denmark); purchased Novo-Nordisk (Denmark) for fVIIa; Protgen (Beijing, China) for sTF; Haematologic Technologies Inc for EGR-fXa
Text: as §1, §2

human fXa = target: T5, human fXa (Homo sapiens, UniProt P00742); test: Chromogenic assay, fXa; type: biochemical
T5 construct: Human coagulation factors IIa (thrombin), Xa, XIa, XIIa, EGR-fXa; purchased Haematologic Technologies Inc (United States)
Text: as §1, §2

human fXIIa = target: T1, human fXIIa; test: Chromogenic assay, fXIIa; type: biochemical
Text: as §1, §2

normal human plasma [2] = test: PT assay in normal human plasma; type: biochemical; conditions: for prolongation of PT (in words): 100 nM and 500 nM; for PT: normal human plasma
Protocol: as §3
For the PT assay, 10 μl recombinant protein at various concentration was mixed with 45 μl normal human plasma and incubated for 15 mins at 37° C. 45 μl prewarmed PT reagent (MDC Hemostasis, Germany) was then added and the clotting time was measured with the absorbance at 630 nm by using an E1x808 kinetic microtiter reader (BioTek, United States). Each concentration was repeated 3 times.

T4 sequence (P08709 61-212 limits assumed): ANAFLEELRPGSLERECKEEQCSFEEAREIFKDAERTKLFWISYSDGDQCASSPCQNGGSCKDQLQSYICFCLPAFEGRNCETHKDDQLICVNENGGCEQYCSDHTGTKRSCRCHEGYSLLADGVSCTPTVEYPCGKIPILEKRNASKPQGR
T4 sequence (P08709 213-466 limits assumed): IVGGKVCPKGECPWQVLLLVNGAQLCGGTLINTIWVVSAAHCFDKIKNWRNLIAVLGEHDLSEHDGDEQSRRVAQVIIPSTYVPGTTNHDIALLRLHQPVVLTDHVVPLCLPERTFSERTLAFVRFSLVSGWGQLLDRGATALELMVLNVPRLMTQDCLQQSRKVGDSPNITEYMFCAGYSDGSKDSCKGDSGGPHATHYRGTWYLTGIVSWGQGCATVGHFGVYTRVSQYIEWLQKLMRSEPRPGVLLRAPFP
T4 sequence (P13726 33-251 partner limits assumed): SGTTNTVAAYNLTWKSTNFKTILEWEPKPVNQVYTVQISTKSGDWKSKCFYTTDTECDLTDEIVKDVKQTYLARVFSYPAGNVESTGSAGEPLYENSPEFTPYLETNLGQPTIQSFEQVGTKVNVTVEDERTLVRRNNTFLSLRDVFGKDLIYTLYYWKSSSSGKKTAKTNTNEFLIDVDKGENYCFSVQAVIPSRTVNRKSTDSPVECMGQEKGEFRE
T3 sequence (P03951 19-387 limits assumed): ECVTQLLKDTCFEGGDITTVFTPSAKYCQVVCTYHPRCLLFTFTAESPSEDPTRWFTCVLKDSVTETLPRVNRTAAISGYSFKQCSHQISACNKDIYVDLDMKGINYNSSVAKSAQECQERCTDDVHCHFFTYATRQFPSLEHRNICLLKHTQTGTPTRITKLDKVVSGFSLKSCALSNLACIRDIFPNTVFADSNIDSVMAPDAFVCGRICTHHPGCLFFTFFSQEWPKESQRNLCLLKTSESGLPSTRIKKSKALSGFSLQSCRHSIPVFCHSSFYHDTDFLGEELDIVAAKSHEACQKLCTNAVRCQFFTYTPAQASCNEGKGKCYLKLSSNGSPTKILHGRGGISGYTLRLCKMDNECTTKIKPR
T3 sequence (P03951 388-625 limits assumed): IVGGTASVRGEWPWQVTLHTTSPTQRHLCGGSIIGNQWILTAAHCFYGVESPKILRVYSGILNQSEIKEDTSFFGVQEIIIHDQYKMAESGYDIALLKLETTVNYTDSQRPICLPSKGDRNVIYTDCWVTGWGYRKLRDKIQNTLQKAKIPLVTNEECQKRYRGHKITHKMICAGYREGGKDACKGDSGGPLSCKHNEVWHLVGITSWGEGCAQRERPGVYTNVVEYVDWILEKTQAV
T5 sequence (P00742 41-179 limits assumed): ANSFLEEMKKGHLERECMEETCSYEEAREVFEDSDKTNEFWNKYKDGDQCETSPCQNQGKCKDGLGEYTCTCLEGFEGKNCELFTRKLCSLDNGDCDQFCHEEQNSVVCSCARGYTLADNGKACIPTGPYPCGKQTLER
T5 sequence (P00742 235-488 limits assumed): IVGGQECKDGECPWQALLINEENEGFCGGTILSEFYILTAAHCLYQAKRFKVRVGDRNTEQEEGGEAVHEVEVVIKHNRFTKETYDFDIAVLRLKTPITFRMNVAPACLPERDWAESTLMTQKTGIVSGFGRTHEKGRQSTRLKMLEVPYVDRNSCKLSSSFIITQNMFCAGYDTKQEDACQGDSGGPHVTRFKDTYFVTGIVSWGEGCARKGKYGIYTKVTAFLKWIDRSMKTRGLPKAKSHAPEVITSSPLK

| Molecule | Bleeding time (BALb/c mice; 100 μg·kg^−1 tail vein) | Bleeding time (BALb/c mice; 1 mg·kg^−1 tail vein) | Bleeding time (BALb/c mice; 5 mg·kg^−1 tail vein) | effect on fIIa activity (in words) (human fIIa (thrombin); 100 nM) | effect on fIIa activity (in words) (human fIIa (thrombin); 200 nM) | inhibition of the activity of fXIa (human fXIa) | inhibition of the activity of fXIa (in words) (human fXIa) | prolongation of aPTT (in words) (normal human plasma [1]) | aPTT (normal human plasma [1]; 100 nM) | multiples of prolonging aPTT (normal human plasma [1]; 100 nM) | aPTT (normal human plasma [1]; 500 nM) | multiples of prolonging aPTT (normal human plasma [1]; 500 nM) | effect on fVIIa/TF activity (in words) (fVIIa/TF; 100 nM) | effect on fVIIa/TF activity (in words) (fVIIa/TF; 200 nM) | effect on fXa activity (in words) (human fXa; 100 nM) | effect on fXa activity (in words) (human fXa; 200 nM) | effect on fXIIa activity (in words) (human fXIIa; 100 nM) | effect on fXIIa activity (in words) (human fXIIa; 200 nM) | prolongation of PT (in words) (normal human plasma [2]) | PT (normal human plasma [2]; 100 nM) | other results |
| --- | --- | --- | --- | --- | --- | --- | --- | --- | --- | --- | --- | --- | --- | --- | --- | --- | --- | --- | --- | --- | --- |
| heparin sodium [reference compound] | – | – | – | – | – | – | – | – | – | – | – | – | – | – | – | – | – | – | – | – | wet weight of thrombus (SD rats): 14.2 ± 3.6 mg; Inhibition rate % (SD rats; vs saline control): 74.3% |
| B1 | 8.30 ± 2.0 min | 8.26 ± 1.9 min | 8.31 ± 2.2 min | without affecting | without affecting | more than 90% | almost completely inhibited | significantly prolong aPTT | 78.7 ± 8.1 s | 1.96 | 218.3 ± 5.9 s | 5.44 | without affecting | without affecting | without affecting | without affecting | without affecting | without affecting | couldn't prolong PT | 11.7 ± 0.5 s | PT (normal human plasma [2]; 500 nM): 12.7 ± 0.4 s |
| B2 | 8.30 ± 2.3 min | 8.31 ± 1.0 min | 8.33 ± 2.4 min | without affecting | without affecting | more than 90% | almost completely inhibited | significantly prolong aPTT | 77.9 ± 2.9 s | 1.94 | 226.8 ± 6.6 s | 5.66 | without affecting | without affecting | without affecting | without affecting | without affecting | without affecting | couldn't prolong PT | 12.2 ± 0.6 s | PT (normal human plasma [2]; 500 nM): 12.6 ± 0.4 s |
| B3 | 8.38 ± 1.3 min | 8.29 ± 2.5 min | 8.32 ± 1.8 min | without affecting | without affecting | more than 90% | almost completely inhibited | significantly prolong aPTT | 83.0 ± 1.2 s | 2.07 | 219.3 ± 6.2 s | 5.47 | without affecting | without affecting | without affecting | without affecting | without affecting | without affecting | couldn't prolong PT | 13.5 ± 0.4 s | PT (normal human plasma [2]; 500 nM): 12.3 ± 0.8 s |

Source: patent US9243044B2, “Anticoagulant polypeptide and applications thereof” (GUANGDONG MEDICAL COLLEGE, priority 2011, dated 2016)
